Assay results reported in patent publication US20240076386A1 (Pfizer, published 2024).
Where a chain is given by its changes, count along the chain named.

B1: anti-E-selectin antibody 0180 chimera (antibody, human IgG1, kappa, V domains shown)
VH: EVQLQQSGAELGKPGTSVKLSCKVSGYKIRSSYMHWVNQRPGKGLEWIGRIDPANGNTIYGDKFKSKATLTSDTSSNTAYIQLSQLKSDDTAIYFCAIDIGTTFDYWGQGVMVTVSS
VL: DIQMTQSPSFLSASVGDRVTINCKASQHINRYLNWYQQKLGEAPKLLIYDANNLQTGIPSRFSGSGSGTDFTLTISSLQPEDVATYFCLQHNSWPNTFGAGTKLELKR
notes: rat VH/VL on effector-null human IgG1 and human kappa
B2: anti-E-selectin antibody 0164 chimera (antibody, human IgG1, kappa, V domains shown)
VH: EVQLQQSGAEFGKPGTSVKLSCKVSGYNIRSSYMHWVNQRPGKGLEWIGRIDPANGNTIYAEKFKIKAILTADSSSNTAYMQLSQLKSDDTAIYFCAMDLYSTSEYWGQGVMVTVSS
VL: B1 VL with A25T, H28N, D50N, N53S, G64A, S76N, H91D, N96L, A100S, L106I
notes: as for B1
B3: anti-E-selectin antibody 0039 chimera (antibody, human IgG1, kappa, V domains shown)
VH: QVQLKETGPGLVQPTQTLSITCTVSGFSLTGYYMQWVRQTPGKGLEWMGFIRSSGSTEYNSEFKSRLSISRDTSKNQVFLKMNSLKTEDTGVYYCARCPYKYSSFVYVGVMDAWGQGAPVTVSS
VL: EIVMTQSPTSMSTSIGERVTLNCKASQTVGINVDWYQQTPGQPPKLLIYGASNRHTGVPDRFTGSGFGRDFTLTISNVEAEDLAVYCCLQYGSIPHTFGPGTKLELKR
notes: as for B1
B4: anti-E-selectin antibody 0159 chimera (antibody, human IgG1, kappa, V domains shown)
VH: EVQLQQSGAELGKPGTSVKLSCKVSGYNIRSTYMHWVSQRPGKGLEWIGRIDPANGNTIYAEKFKRKATLTADTSSNTAYMQLSQLKSDDRAIYFCAMEVRVSFEYWGQGVMVTVSS
VL: DIQMTQSPSFLSASVGDRVTINCKASQNINKYLDWYQQKLGEGPKLLIYYTNNLHTGIPSRFSGSGSGTDFTLTISSLQPEDVATYFCLQHDSGYTFGAGTKLELKR
notes: as for B1
B5: anti-E-selectin antibody 0170 chimera (antibody, human IgG1, kappa, V domains shown)
VH: EVQLQQSGAELGKPGTSVKLSCKVSGYSIRSTYMHWVNQRPGKGLEWVGRIDPANGNTIYAERFKNKATLTADTSSNTAYMQLSQLKSDDTAIYFCAVEILGIFDYWGQGVMVTVSS
VL: B4 VL with N30D, G43A, I48M, Y50N, N53S, D92N
notes: as for B1
B6: optimized anti-E-selectin antibody 1282 (antibody, human IgG1, kappa, V domains shown)
VH: EVQLVESGGGLVQPGGSLRLSCAASGYAIRSAYMHWVRQAPGKGLEWVARIDPANGNTIYVDSVEGRFTISADNAKNSAYLQMNSLRAEDTAVYYCAMDLYSTSEYWGQGTLVTVSS
VL: DIQMTQSPSSLSASVGDRVTITCKTSQNIERYLNWYQQKPGKAPKLLIYAASSLQSGVPSRFSGSGSGTDFTLTISSLQPEDFATYFCLQDNAWPLTFGQGTKVEIKR
notes: effector-null human IgG1, kappa
B7: optimized anti-E-selectin antibody 1448 (antibody, human IgG1, kappa, V domains shown)
VH: B6 VH with E65K, G66E
VL: B6 VL
notes: as for B6
B8: optimized anti-E-selectin antibody 1284 (antibody, human IgG1, kappa, V domains shown)
VH: B6 VH with D62E
VL: B6 VL
notes: as for B6
B9: optimized anti-E-selectin antibody 1444 (antibody, human IgG1, kappa, V domains shown)
VH: B6 VH with E65T
VL: B6 VL
notes: as for B6

Target: T1, cynomolgus monkey E-selectin extracellular domain with 10 His purification tail (cynomolgus monkey, UniProt P16581 22-554 (human entry))
T1 construct: also called cynomolgus E-selectin; truncated cynomolgus monkey E-selectin
T1 chain: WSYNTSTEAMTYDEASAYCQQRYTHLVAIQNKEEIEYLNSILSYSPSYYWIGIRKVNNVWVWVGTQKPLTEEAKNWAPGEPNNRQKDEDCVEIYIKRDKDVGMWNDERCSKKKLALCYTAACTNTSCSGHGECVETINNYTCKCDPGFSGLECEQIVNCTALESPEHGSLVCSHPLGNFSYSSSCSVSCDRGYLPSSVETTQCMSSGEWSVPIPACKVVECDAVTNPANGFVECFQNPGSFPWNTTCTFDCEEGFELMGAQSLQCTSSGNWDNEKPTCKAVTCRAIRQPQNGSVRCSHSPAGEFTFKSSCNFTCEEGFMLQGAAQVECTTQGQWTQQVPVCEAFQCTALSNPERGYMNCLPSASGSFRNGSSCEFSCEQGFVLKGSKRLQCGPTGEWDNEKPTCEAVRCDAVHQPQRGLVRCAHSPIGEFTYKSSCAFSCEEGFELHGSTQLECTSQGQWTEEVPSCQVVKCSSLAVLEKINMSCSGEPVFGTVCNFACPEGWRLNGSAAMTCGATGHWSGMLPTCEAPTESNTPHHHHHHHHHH
Test: AlphaLISA competition vs sialyl Lewis A-PAA-biotin
Procedure: The neutralization ability of anti-E-selectin antibodies was measured in an AlphaLISA homogenous competition assay. […] This was incubated at room temperature for 15 minutes, followed by addition of 1.4 μL of human, mouse or cynomolgus monkey E-selectin added to a final concentration of 7 nM. This was again incubated at room temperature for 15 minutes. To this, 1.4 μL AlphaLISA beads was added (Ni-donor/SA-acceptor) for a final assay concentration of 10 μg/mL. This was incubated in the dark at room temperate for at least 10 hours. The plates were then read using the AlphaLISA protocol (Envision).

B1 and B2 cannot be ordered by EC50: less than 1 nM for the first, less than 1 nM for the second.

First: B3
Second: B4
The EC50 of the first is higher: greater than 63 nM for the first, less than 1 nM for the second.

B5 gave an EC50 of less than 1 nM.

target: T2, recombinant histidine-tagged human E-selectin (Sino Biologicals; 13025-H08H) (human, UniProt P16581 22-556); test: competition ELISA, His-tagged E-selectin on Ni-NTA plate vs HRP-conjugated sialyl Lewis A
T2 construct: also called recombinant human E-selectin; soluble recombinant human E-selectin
T2 sequence (looked up): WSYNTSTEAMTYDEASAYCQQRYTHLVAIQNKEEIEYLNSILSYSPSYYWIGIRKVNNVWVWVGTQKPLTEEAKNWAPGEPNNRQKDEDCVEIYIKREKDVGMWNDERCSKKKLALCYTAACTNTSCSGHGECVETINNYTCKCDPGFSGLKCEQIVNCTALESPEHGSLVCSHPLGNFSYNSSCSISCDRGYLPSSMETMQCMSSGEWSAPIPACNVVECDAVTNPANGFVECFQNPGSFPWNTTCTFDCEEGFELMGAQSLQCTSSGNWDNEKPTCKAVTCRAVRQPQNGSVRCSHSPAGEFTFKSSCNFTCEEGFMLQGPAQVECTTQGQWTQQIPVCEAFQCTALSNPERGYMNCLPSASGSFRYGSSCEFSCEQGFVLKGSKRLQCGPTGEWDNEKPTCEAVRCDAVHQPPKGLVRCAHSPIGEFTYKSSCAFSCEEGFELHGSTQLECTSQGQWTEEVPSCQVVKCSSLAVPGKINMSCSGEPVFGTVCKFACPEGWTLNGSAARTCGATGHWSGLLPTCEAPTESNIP
Procedure: (§1) Recombinant histidine-tagged E-selectin; cynomolgus monkey E-selectin (Sino Biologicals; 190169-C08H) and human E-selectin (Sino Biologicals; 13025-H08H) stock solutions were prepared to a final concentration of 3 μg/mL in phosphate buffered saline (PBS) without calcium and magnesium. One hundred μL per well of the diluted recombinant E-selectin protein was added into a Ni-NTA HisSorb 96 well plate (Qiagen, 35061) and plates were incubated on an orbital shaker at room temperature for 2 hours. Sialyl Lewis A polyacrylamide biotin, a synthetic E-selectin ligand (GlycoTech corporation 01-044), was conjugated to streptavidin HRP (horse radish peroxidase) (Ultra Streptavidin HRP, Thermo Scientific N504) and diluted in assay diluent containing 2 mM calcium chloride (BD OptEIA buffer; BD Biosciences, 555213).
(§2) Following the incubation, the plates were washed 5 times with 200 μL of wash buffer containing 2 mM of calcium chloride (50 mM TRIS [trisaminomethane]; 150 mM sodium chloride, 0.05% polysorbate 20, pH 7.4; 2 mM of calcium chloride). […] The final antibody concentration ranged from 200 nM to 0.09 nM and the final concentration of HRP conjugated Sialyl Lewis A was 5 μg/mL. Plates were washed as mentioned before, and 100 μL per well of 1-Step Ultra TMB substrate (Thermo Scientific, 34028) was added and incubated for 5 minutes at room temperature. Reactions were stopped with 100 μl of 2M sulfuric acid and absorbance read at 450 nm (Spectramax M5e). Data were analyzed and graphed using GraphPad Prism software (Version 8.0.2).

In order of rising IC50:
1. B7  2.96 nM
2. B9  3.01 nM
3. B2  3.39 nM
4. B6  3.39 nM
5. B8  3.59 nM

target: T3, recombinant histidine-tagged cynomolgus monkey E-selectin (Sino Biologicals; 190169-C08H) (cynomolgus monkey, UniProt A0A2K5U7H9 22-554); test: as above
T3 construct: also called recombinant cynomolgus monkey E-selectin
T3 sequence: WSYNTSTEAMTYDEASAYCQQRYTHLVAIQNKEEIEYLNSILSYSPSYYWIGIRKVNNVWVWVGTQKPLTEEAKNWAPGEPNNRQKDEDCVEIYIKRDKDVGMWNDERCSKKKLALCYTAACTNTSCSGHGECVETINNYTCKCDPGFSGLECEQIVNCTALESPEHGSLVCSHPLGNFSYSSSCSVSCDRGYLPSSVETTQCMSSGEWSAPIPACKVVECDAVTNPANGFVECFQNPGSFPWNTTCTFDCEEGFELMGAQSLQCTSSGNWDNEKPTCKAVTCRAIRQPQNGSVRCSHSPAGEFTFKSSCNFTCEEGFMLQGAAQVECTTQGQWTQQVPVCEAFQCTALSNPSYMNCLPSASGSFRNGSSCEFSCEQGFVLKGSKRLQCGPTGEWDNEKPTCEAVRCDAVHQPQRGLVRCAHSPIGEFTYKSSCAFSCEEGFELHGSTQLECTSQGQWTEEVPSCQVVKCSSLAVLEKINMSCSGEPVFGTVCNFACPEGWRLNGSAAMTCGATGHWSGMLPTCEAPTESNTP
Procedure: as §1, §2

In order of rising IC50:
1. B7  2.74 nM
2. B9  2.91 nM
3. B6  3.23 nM
4. B2  3.29 nM
5. B8  3.39 nM
